Data: patent US20100331250A1

Experiments:
human VEGF165 (human) [1] = biological target: human VEGF165 (human) (UniProt P15692); assay: cell-based or functional assay
human VEGF165 (human) [2] = biological target: human VEGF165 (human) (UniProt P15692); assay: quantitative ELISA; serial concentrations of fusion protein mixed with 40 pM human VEGF165, detection with anti-human IgG Fc-HRP

UniProt P15692, sequence (P15692 other isoform, or with tags, fused parts or gaps limits assumed): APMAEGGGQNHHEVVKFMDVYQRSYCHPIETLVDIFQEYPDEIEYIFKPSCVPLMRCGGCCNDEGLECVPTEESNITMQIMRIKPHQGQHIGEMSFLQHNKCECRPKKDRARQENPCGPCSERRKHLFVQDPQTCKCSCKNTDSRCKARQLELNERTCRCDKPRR

VEGF-Trap (Fc fusion) gave a growth activity of VEGF on HUVEC (CCK-8, endothelial cell growth assay) (human VEGF165 (human) [1]) of 28 pM, an inhibitory activity against VEGF (HUVEC growth assay) (human VEGF165 (human) [1]) of 14 pM and an EC50 (human VEGF165 (human) [2]) of 0.136 µg/mL.
